Where a chain is given by its changes, count along the chain named. Numbers in names are those of the source.
T1: hIL-5Rα, purified recombinant protein (human, UniProt Q01344 21-342, limits assumed)
T1 construct: Soluble antigen of the Octet experiments
T1 sequence (looked up): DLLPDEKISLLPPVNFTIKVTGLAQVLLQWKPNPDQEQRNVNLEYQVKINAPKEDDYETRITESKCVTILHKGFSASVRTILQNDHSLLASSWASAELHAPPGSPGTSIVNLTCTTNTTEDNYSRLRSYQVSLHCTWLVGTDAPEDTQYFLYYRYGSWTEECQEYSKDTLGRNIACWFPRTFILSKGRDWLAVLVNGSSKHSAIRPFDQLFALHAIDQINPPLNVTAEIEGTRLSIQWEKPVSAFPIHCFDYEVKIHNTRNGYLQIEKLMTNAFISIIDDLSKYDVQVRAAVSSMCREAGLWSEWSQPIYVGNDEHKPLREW

T2: human IL-5Rα expressed on the K562/IL-5Rα cell line (human, UniProt Q01344 21-420)
T2 sequence (looked up): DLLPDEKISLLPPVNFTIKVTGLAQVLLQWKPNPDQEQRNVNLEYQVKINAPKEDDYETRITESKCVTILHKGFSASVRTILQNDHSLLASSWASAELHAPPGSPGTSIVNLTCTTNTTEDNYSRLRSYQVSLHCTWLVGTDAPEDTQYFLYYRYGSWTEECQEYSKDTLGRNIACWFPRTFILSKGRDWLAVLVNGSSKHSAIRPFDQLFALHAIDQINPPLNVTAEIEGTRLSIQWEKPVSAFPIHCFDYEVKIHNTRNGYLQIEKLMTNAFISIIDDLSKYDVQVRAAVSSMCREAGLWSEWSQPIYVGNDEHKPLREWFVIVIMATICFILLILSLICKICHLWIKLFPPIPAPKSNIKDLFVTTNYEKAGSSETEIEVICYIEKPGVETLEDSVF

B1: IL-5Rα×CD3ε-Diabody-Fc (bispecific antibody)
chain 1: DIQMTQSPSTLSASVGDRVTITCKASQNVGTAVAWYQQKPGKAPKLLIYWASTRHTGVPDRFSGSGSGTDFTLTISSLQPDDFATYYCQQFGRYPYTFGSGTKVEVKGGGSGGGGEVQLVESGGGLVQPKGSLKLSCAASGFTFNTYAMNWVRQAPGKGLEWVARIRSKYNNYATYYADSVKDRFTISRDDSQSILYLQMNNLKTEDTAMYYCVRHGNFGNSYVSWFAYWGQGTLVTVSSGCPPCPAPEFEGGPSVFLFPPKPKDTLMISRTPEVTCVVVAVSHEDPEVKFNWYVDGVEVHNAKTKPREEQYNSTYRVVSVLTVLHQDWLNGKEYKCKVSNKALPAPIEKTISKAKGQPREPQVYTLPPSRDELTENQVSLTCLVKGFYPSDIAVEWESNGQPENNYKTTPPVLDSDGSFFLYSWLTVDKSRWQQGNVFSCSVMHEALHNHYTQKSLSLSPGK
chain 2: QAVVTQESALTTSPGETVTLTCRSSTGAVTTSNYANWVQEKPDHLFTGLIGGTNKRAPGVPARFSGSLIGDKAALTITGAQTEDEAIYFCALWYSNLWVFGGGTKLTVLGGGSGGGGQVQLVQSGAEVKKPGSSVKVSCKASGYTFTSYWINWVRQAPGQGLEWIGHIYPNKNENYYNHKFKDKATLTVDKSTNTAYMELSSLRSEDTAVYYCTREFYGRQYYQAMDYWGQGTTLTVSSGCPPCPAPEFEGGPSVFLFPPKPKDTLMISRTPEVTCVVVAVSHEDPEVKFNWYVDGVEVHNAKTKPREEQYNSTYRVVSVLTVLHQDWLNGKEYKCKVSNKALPAPIEKTISKAKGQPREPRVYTLPPSRDELTKNQVSLTCLVKGFYPSDIAVEWESNGQPENNYKTTPPVLVSDGSFTLYSKLTVDKSRWQQGNVFSCSVMHEALHNHYTQKSLSLSPGK
notes: Built from 5R65.7 (anti-IL-5Rα) and humanized SP34 (anti-CD3ε); Heterodimeric IgG1 Fc with EW-RVT and L234F/L235E/D265A (FEA) mutations
B2: IL-5Rα×CD3ε-BiTE(L)/scFv-Fc (bispecific antibody, human IgG1)
chain 1: DIQMTQSPSTLSASVGDRVTITCKASQNVGTAVAWYQQKPGKAPKLLIYWASTRHTGVPDRFSGSGSGTDFTLTISSLQPDDFATYYCQQFGRYPYTFGSGTKVEVKGGGGSGGGGSGGGGSQVQLVQSGAEVKKPGSSVKVSCKASGYTFTSYWINWVRQAPGQGLEWIGHIYPNKNENYYNHKFKDKATLTVDKSTNTAYMELSSLRSEDTAVYYCTREFYGRQYYQAMDYWGQGTTLTVSSGGGGSQAVVTQESALTTSPGETVTLTCRSSTGAVTTSNYANWVQEKPDHLFTGLIGGTNKRAPGVPARFSGSLIGDKAALTITGAQTEDEAIYFCALWYSNLWVFGGGTKLTVLGGGGSGGGGSGGGGSEVQLVESGGGLVQPKGSLKLSCAASGFTFNTYAMNWVRQAPGKGLEWVARIRSKYNNYATYYADSVKDRFTISRDDSQSILYLQMNNLKTEDTAMYYCVRHGNFGNSYVSWFAYWGQGTLVTVSSEPKSCDKTHTCPPCPAPEFEGGPSVFLFPPKPKDTLMISRTPEVTCVVVAVSHEDPEVKFNWYVDGVEVHNAKTKPREEQYNSTYRVVSVLTVLHQDWLNGKEYKCKVSNKALPAPIEKTISKAKGQPREPQVYTLPPSRDELTENQVSLTCLVKGFYPSDIAVEWESNGQPENNYKTTPPVLDSDGSFFLYSWLTVDKSRWQQGNVFSCSVMHEALHNHYTQKSLSLSPGK
chain 2: QVQLVQSGAEVKKPGSSVKVSCKASGYTFTSYWINWVRQAPGQGLEWIGHIYPNKNENYYNHKFKDKATLTVDKSTNTAYMELSSLRSEDTAVYYCTREFYGRQYYQAMDYWGQGTTLTVSSGGGGSGGGGSGGGGSDIQMTQSPSTLSASVGDRVTITCKASQNVGTAVAWYQQKPGKAPKLLIYWASTRHTGVPDRFSGSGSGTDFTLTISSLQPDDFATYYCQQFGRYPYTFGSGTKVEVKEPKSCDKTHTCPPCPAPEFEGGPSVFLFPPKPKDTLMISRTPEVTCVVVAVSHEDPEVKFNWYVDGVEVHNAKTKPREEQYNSTYRVVSVLTVLHQDWLNGKEYKCKVSNKALPAPIEKTISKAKGQPREPRVYTLPPSRDELTKNQVSLTCLVKGFYPSDIAVEWESNGQPENNYKTTPPVLVSDGSFTLYSKLTVDKSRWQQGNVFSCSVMHEALHNHYTQKSLSLSPGK
notes: Heterodimeric IgG1 Fc with EW-RVT and FEA mutations
B3: IL-5Rα×CD3ε-IgG analog (bispecific antibody)
heavy 1: QVQLVQSGAEVKKPGSSVKVSCKASGYTFTSYWINWVRQAPGQGLEWIGHIYPNKNENYYNHKFKDKATLTVDKSTNTAYMELSSLRSEDTAVYYCTREFYGRQYYQAMDYWGQGTTLTVSSASTKGPSVFPLAPSSKSTSGGTAALGCLVKDYFPEPVTVSWNSGALTSGVHTFPAVLQSSGLYSLSSVVTVPSSSLGTQTYICNVNHKPSNTKVDKKVEPKSCDKTHTCPPCPAPEFEGGPSVFLFPPKPKDTLMISRTPEVTCVVVAVSHEDPEVKFNWYVDGVEVHNAKTKPREEQYNSTYRVVSVLTVLHQDWLNGKEYKCKVSNKALPAPIEKTISKAKGQPREPRVYTLPPSRDELTKNQVSLTCLVKGFYPSDIAVEWESNGQPENNYKTTPPVLVSDGSFTLYSKLTVDKSRWQQGNVFSCSVMHEALHNHYTQKSLSLSPGK
light: DIQMTQSPSTLSASVGDRVTITCKASQNVGTAVAWYQQKPGKAPKLLIYWASTRHTGVPDRFSGSGSGTDFTLTISSLQPDDFATYYCQQFGRYPYTFGSGTKVEVKRTVAAPSVFIFPPSDEQLKSGTASVKCLLNNFYPREAKVQWKVDNALQSGNSQESVTEQDSKDSTYSLSSTLTLSKADYEKHKVYACEVTHQGLSSPVTKSFNRGEC
heavy 2: not shown
chain: QAVVTQESALTTSPGETVTLTCRSSTGAVTTSNYANWVQEKPDHLFTGLIGGTNKRAPGVPARFSGSLIGDKAALTITGAQTEDEAIYFCALWYSNLWVFGGGTKLTVLRTVAAPSVFIFPPSDEQLKSGTASVECLLNNFYPREAKVQWKVDNALQSGNSQESVTEQDSKDSTYSLSSTLTLSKADYEKHKVYACEVTHQGLSSPVTKSFNRGEC
notes: Four-chain molecule: SP34 heavy and light chains and 5R65.7 heavy and light chains, with complementary CH1/CL mutations, EW-RVT and FEA
B4: IL-5Rα×CD3ε-scFv(L)/scFv-Fc (bispecific antibody, human IgG1)
chain 1: QAVVTQESALTTSPGETVTLTCRSSTGAVTTSNYANWVQEKPDHLFTGLIGGTNKRAPGVPARFSGSLIGDKAALTITGAQTEDEAIYFCALWYSNLWVFGGGTKLTVLGGGGSGGGGSGGGGSEVQLVESGGGLVQPKGSLKLSCAASGFTFNTYAMNWVRQAPGKGLEWVARIRSKYNNYATYYADSVKDRFTISRDDSQSILYLQMNNLKTEDTAMYYCVRHGNFGNSYVSWFAYWGQGTLVTVSSEPKSCDKTHTCPPCPAPEFEGGPSVFLFPPKPKDTLMISRTPEVTCVVVAVSHEDPEVKFNWYVDGVEVHNAKTKPREEQYNSTYRVVSVLTVLHQDWLNGKEYKCKVSNKALPAPIEKTISKAKGQPREPQVYTLPPSRDELTENQVSLTCLVKGFYPSDIAVEWESNGQPENNYKTTPPVLDSDGSFFLYSWLTVDKSRWQQGNVFSCSVMHEALHNHYTQKSLSLSPGK
chain 2: DIQMTQSPSTLSASVGDRVTITCKASQNVGTAVAWYQQKPGKAPKLLIYWASTRHTGVPDRFSGSGSGTDFTLTISSLQPDDFATYYCQQFGRYPYTFGSGTKVEVKGGGGSGGGGSGGGGSQVQLVQSGAEVKKPGSSVKVSCKASGYTFTSYWINWVRQAPGQGLEWIGHIYPNKNENYYNHKFKDKATLTVDKSTNTAYMELSSLRSEDTAVYYCTREFYGRQYYQAMDYWGQGTTLTVSSEPKSCDKTHTCPPCPAPEFEGGPSVFLFPPKPKDTLMISRTPEVTCVVVAVSHEDPEVKFNWYVDGVEVHNAKTKPREEQYNSTYRVVSVLTVLHQDWLNGKEYKCKVSNKALPAPIEKTISKAKGQPREPRVYTLPPSRDELTKNQVSLTCLVKGFYPSDIAVEWESNGQPENNYKTTPPVLVSDGSFTLYSKLTVDKSRWQQGNVFSCSVMHEALHNHYTQKSLSLSPGK
notes: Built from 5R65.7 and humanized SP34 scFvs with (G4S)3 linkers and an IgG1 hinge; Heterodimeric IgG1 Fc with EW-RVT and FEA mutations; also called IL-5Rα×CD3α-scFv(L)/scFv-Fc
B5: IL-5Rα(5R65)×CD3ε-scFv(L)/scFv-Fc (bispecific antibody)
chain 1: B4 chain 2 with E221D, F222Y, Q226S, Q229Y
chain 2: B4 chain 1
notes: Control in the scFv(L)/scFv-Fc format, built with 5R65, the parent antibody of 5R65.7; also called IL-5Rα(5R65)×CD3α-scFv(L)/scFv-Fc

What follows are binders tested against human CD3ε on activated PBMC (human, UniProt P07766 23-207) (assay: cell-based or functional assay).
human CD3ε on activated PBMC, sequence (P07766 23-207): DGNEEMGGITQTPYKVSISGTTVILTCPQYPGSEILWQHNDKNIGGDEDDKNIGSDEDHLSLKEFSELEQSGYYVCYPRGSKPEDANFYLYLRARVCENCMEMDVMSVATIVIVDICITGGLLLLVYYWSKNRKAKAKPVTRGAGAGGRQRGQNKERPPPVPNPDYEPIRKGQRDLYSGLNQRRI
B1 was tested, and the “IFN-γ EC50 (pM), ELISA of supernatant after 24 h co-culture of activated PBMC and K562/IL-5Rα” value (“IFN-γ EC50 (pM), ELISA of supernatant” for short) was 2340 pM. For B2, the “IFN-γ EC50 (pM), ELISA of supernatant” value was 31000 pM. For B3, the “IFN-γ EC50 (pM), ELISA of supernatant” value was 2210 pM. B4 was tested, and the “IFN-γ EC50 (pM), ELISA of supernatant” value was 770 pM.

These binders were tested against T1, hIL-5Rα, purified recombinant protein (assay: BLI (Octet QKe), ratio of the KD values of Table 2).
With B4 the “fold higher binding affinity for IL-5Rα than the Diabody-Fc format” value was about 2.1 fold.

These binders were tested against T2, human IL-5Rα expressed on the … (assay: cell-based or functional assay).
B1 was tested, and the “24hr EC50 of T cell-mediated cytotoxicity (LDH release) against K562/IL-5Rα, activated PBMC, E:T 5:1” value (“24hr EC50” for short) was 0.00497 nM. B2 was tested, and the “24hr EC50” value was 0.0147 nM. B3 was tested, and the “24hr EC50” value was 0.0231 nM. For B4, the “24hr EC50” value was 0.000857 nM.

The binders below were run against T3, CD3ε, commercially available (sinobiological, 10977-H08H) (UniProt P07766 23-126) (assay: BLI (Octet QKe), antibody captured on AHC sensor, antigen 125-4,000 nM, 1:1 model).
T3 construct: Bought protein
T3 sequence (P07766 23-126 limits assumed): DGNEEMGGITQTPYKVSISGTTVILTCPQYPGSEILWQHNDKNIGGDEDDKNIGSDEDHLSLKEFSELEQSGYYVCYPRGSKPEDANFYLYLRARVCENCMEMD
With B1 the Kd was 8.41 nM, the koff was 0.00141 s⁻¹ and the kon was 167000 M⁻¹ s⁻¹. In the case of B2, the Kd is reported as 4.62 nM, the koff is reported as 0.000827 s⁻¹ and the kon is reported as 179000 M⁻¹ s⁻¹. B3 was tested, and the Kd was 1.71 nM, the koff was 0.000474 s⁻¹ and the kon was 278000 M⁻¹ s⁻¹. Binder B4 has a Kd of 3.61 nM, a koff of 0.000634 s⁻¹ and a kon of 176000 M⁻¹ s⁻¹.

These binders were tested against T1, hIL-5Rα, purified recombinant protein in the same assay as above.
B1 was tested, and the Kd was 123 nM, the koff was 0.000306 s⁻¹ and the kon was 2500 M⁻¹ s⁻¹. In the case of B2, the Kd is reported as 22.9 nM, the koff is reported as 0.000708 s⁻¹ and the kon is reported as 30900 M⁻¹ s⁻¹. B3 gave a Kd of 30.5 nM, a koff of 0.00011 s⁻¹ and a kon of 3610 M⁻¹ s⁻¹. Binder B4 has a Kd of 59.8 nM, a koff of 0.000171 s⁻¹ and a kon of 2850 M⁻¹ s⁻¹.

What follows are binders tested against T2, human IL-5Rα expressed on the … (assay: flow cytometry on K562/IL-5Rα cells, 50 nM antibody).
B5: binds.

Reference: EP4707301A1 (AJOU UNIVERSITY INDUSTRY-ACADEMIC COOPERATION FOUNDATION, dated 2026)
